By IC50 is commonly meant the point on the concentration scale where inhibition reaches its midpoint. A low value points to greater potency in that assay.

Assay [1] concerns the target T1, HLA-A02.01 class I MHC molecule (prepared complex) (human). As to the kind of experiment: dissociation of peptide-MHC-I complex at 37 C, 125I-labelled b2m, scintillation. How it is done: Briefly, synthetic genes encoding biotinylated MHC-I heavy and light chains are expressed in E. coli and purified from inclusion bodies using standard methods. […] These reactions are carried out in streptavidin coated microplates to bind the biotinylated MHC-I heavy chains to the surface and allow measurement of radiolabeled light chain to monitor complex formation. Dissociation is initiated by addition of higher concentrations of unlabeled light-chain and incubation at 37° C. Stability is defined as the length of time in hours it takes for half of the complexes to dissociate, as measured by scintillation counts.

Assay [2] addresses T1, HLA-A02.01 class I MHC molecule …. Nature of the assay: displacement of radiolabeled reference peptide from class I MHC, gel filtration; 'Affinity (nM)'. How it is done:
Peptides were incubated at varying concentrations with these complexes for 2 days, and the amount of remaining radiolabeled peptide bound to […] was measured using size exclusion gel-filtration.
On the technique in general: In gel filtration, larger molecules generally elute earlier.

B1: EGFR_T790M peptide LIMQLMPFGC (peptide)
peptide: LIMQLMPFGC
notes: synthetic peptide holding the EGFR T790M mutation
For B1, the “Stability (half-life (hr.))” value in assay [1] worked out at 22.9 min. The half-inhibitory concentration (IC50) in assay [2] came out at 132 nM.
